Assay [1] deals with T1, HAUS6 N-terminal region (a.a. 1–432) (human, UniProt Q7Z4H7 1-432).
T1 construct: HAUS6, human, N-terminal region a.a; 1-432 (C-terminal region H6C, a.a. 433-955, deleted); also called H6N; H6 in augmin^ΔH6C; source: High5 insect cells, co-infected with baculoviruses; purified as part of the augmin^ΔH6C octamer (StrepII-Trap, Superose 6)
T1 sequence (looked up): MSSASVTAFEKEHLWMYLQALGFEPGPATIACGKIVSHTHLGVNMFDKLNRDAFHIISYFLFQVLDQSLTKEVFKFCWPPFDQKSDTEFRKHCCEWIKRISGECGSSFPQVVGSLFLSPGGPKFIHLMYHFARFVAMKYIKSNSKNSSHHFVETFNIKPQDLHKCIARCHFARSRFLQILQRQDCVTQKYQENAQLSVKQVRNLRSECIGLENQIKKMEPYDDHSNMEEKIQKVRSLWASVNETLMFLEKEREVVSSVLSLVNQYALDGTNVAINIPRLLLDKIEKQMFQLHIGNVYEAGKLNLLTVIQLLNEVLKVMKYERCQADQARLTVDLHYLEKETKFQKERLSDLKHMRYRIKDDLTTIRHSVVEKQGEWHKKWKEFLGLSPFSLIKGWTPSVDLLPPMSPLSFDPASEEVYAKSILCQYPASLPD
Description: cross-linking; purified augmin^ΔH6C with DSSO at 250:1, 500:1, 750:1 and 1000:1 molar ratio, 1 h on ice; trypsin in gel or in solution, LC-MS/MS, MetaMorpheus, 1% FDR. The conditions noted are these: both partners purified.

Assay [2] addresses T2, HAUS5 (human, UniProt O94927 1-633).
T2 construct: HAUS5, human; 633; also called H5; source: High5 insect cells, co-infected with baculoviruses; purified as part of the augmin octamer (StrepII-Trap, Superose 6)
T2 sequence (looked up): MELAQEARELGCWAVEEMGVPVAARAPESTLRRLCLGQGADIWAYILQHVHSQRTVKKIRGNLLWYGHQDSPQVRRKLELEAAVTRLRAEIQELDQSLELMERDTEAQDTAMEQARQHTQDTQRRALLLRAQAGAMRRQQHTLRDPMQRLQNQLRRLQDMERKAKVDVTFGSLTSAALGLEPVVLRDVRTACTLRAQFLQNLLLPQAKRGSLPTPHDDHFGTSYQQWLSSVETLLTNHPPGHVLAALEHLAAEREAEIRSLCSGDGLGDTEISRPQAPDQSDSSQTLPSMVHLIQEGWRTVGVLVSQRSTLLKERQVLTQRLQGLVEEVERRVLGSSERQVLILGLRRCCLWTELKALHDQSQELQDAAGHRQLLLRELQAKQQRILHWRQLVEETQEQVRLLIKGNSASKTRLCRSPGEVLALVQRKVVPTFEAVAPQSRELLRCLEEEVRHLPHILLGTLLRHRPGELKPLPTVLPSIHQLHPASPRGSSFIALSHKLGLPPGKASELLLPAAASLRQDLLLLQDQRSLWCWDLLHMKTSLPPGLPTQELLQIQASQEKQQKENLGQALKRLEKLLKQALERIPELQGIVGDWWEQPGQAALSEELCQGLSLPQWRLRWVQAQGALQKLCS
Described as above. To be noted: both partners purified.

B1: HAUS8 (natural protein, human, UniProt Q9BT25 1-410, looked up)
chain: MADSSGRGAGKPATGPTNSSSAKKKDKRVQGGRVIESRYLQYEKKTTQKAPAGDGSQTRGKMSEGGRKSSLLQKSKADSSGVGKGDLQSTLLEGHGTAPPDLDLSAINDKSIVKKTPQLAKTISKKPESTSFSAPRKKSPDLSEAMEMMESQTLLLTLLSVKMENNLAEFERRAEKNLLIMCKEKEKLQKKAHELKRRLLLSQRKRELADVLDAQIEMLSPFEAVATRFKEQYRTFATALDTTRHELPVRSIHLEGDGQQLLDALQHELVTTQRLLGELDVGDSEENVQVLDLLSELKDVTAKKDLELRRSFAQVLELSAEASKEAALANQEVWEETQGMAPPSRWYFNQDSACRESGGAPKNTPLSEDDNPGASSAPAQATFISPSEDFSSSSQAEVPPSLSRSGRDLS
notes: HAUS8, human; 410; a.a; 1-138 and 340-410 are not seen in the cryo-EM map; also called H8; source: High5 insect cells, co-infected with baculoviruses; purified as part of the augmin octamer (StrepII-Trap, Superose 6)
Turning to B1, the binding result in assay [1] is listed as “binds”.

B2: HAUS3 (natural protein, human, UniProt Q68CZ6 1-603, looked up)
chain: MSCGNEFVETLKKIGYPKADNLNGEDFDWLFEGVEDESFLKWFCGNVNEQNVLSERELEAFSILQKSGKPILEGAALDEALKTCKTSDLKTPRLDDKELEKLEDEVQTLLKLKNLKIQRRNKCQLMASVTSHKSLRLNAKEEEATKKLKQSQGILNAMITKISNELQALTDEVTQLMMFFRHSNLGQGTNPLVFLSQFSLEKYLSQEEQSTAALTLYTKKQFFQGIHEVVESSNEDNFQLLDIQTPSICDNQEILEERRLEMARLQLAYICAQHQLIHLKASNSSMKSSIKWAEESLHSLTSKAVDKENLDAKISSLTSEIMKLEKEVTQIKDRSLPAVVRENAQLLNMPVVKGDFDLQIAKQDYYTARQELVLNQLIKQKASFELLQLSYEIELRKHRDIYRQLENLVQELSQSNMMLYKQLEMLTDPSVSQQINPRNTIDTKDYSTHRLYQVLEGENKKKELFLTHGNLEEVAEKLKQNISLVQDQLAVSAQEHSFFLSKRNKDVDMLCDTLYQGGNQLLLSDQELTEQFHKVESQLNKLNHLLTDILADVKTKRKTLANNKLHQMEREFYVYFLKDEDYLKDIVENLETQSKIKAVSLED
notes: HAUS3, human; 603; also called H3; source: High5 insect cells, co-infected with baculoviruses; purified as part of the augmin octamer (StrepII-Trap, Superose 6)
In the case of B2, the binding result in assay [2] is “binds”.

(Values after paper PMC9481612, “Molecular architecture of the augmin complex” (Nature Communications, 2022).)
